{"source": "patent US20240218057A1", "about": "(ROCKEFELLER UNIVERSITY, published 2024)", "binders": {"B1": {"name": "C1006 (antibody, V domains shown)", "VH": "QVQLVQSGAEVRKPGSSVKVSCKASGGPFDQYTFSWVRQAPGQGLEWMARITPVVDLTNYAQKFQGRITIITDKSTSTAYMELSSLRSEDTAIYYCATPLNDYYASGNLGLWGQGTLVTVSS", "VL": "DIQMTQSPSSLSASIGDRVTITCRASQGISYYLAWFQQKPGEAPRSLIYDASSLQSGVPSKFSGSGSGTDFTLTISSLQPEDSATYYCQQYNSYPLTFGGGTKVEIK", "notes": "IgG; V domains only"}, "B2": {"name": "C1007 (antibody, V domains shown)", "VH": "QVQLVQSGSEMKKPGSSVKVSCKAAGGTLNTHTFSWVRQAPGQGLEWMGRITPTVDLTNYAQKFQGRITITADTSTNTAYLELRRLRSEDTAIYYCATPLNDYYASGNLGLWGQGTLVTVSS", "VL": "DIQMTQSPSSLSASIGDTVTITCRASQGISYYLAWFQRKPGKAPKSLIYDASSLQSGVPSKFSGSGSGTDFTLTISSLQPEDSATYYCQQYSTYPLTFGGGTKVEIK", "notes": "IgG; V domains only"}, "B3": {"name": "C997 (antibody, V domains shown)", "VH": "EVQLLESGGGLVQPGGSLRLSCAASGFTFSKDAMSWVRQAPGKGLEWVSTVTGSGTNTYYADSVKGRFTISRDNSNNTLYLQMNSLRAEDTAVYYCANHPLGAAEGYYYYYMDVWGKGTTVTVSS", "VL": "EIVLTQSPGTLSLSPGERGTLSCRASQRVPSSQLAWYQQKSGQAPRLLIYGASSRASGIPDRFSGSGSGTDFTLNISRLEPEDFAVYYCQQYGSLRALTFGGGTKVEIK", "notes": "IgG; V domains only"}, "B4": {"name": "C994 (antibody, V domains shown)", "VH": "QVQLQESGPGLVKPSGTLSLTCAVSGVSISNTNWWNWVRQPPGKGLEWIGEIYHTGSARYNPSLRSRVTISVDKSKNQFSLRLNSATAADTAIYYCARAQTPEFGELLYWGQGALVTVSS", "VL": "DIQMTQSPSSLSASVGDRVTITCRASQSITDHLNWYQQKPGKAPKLLIYAASSLQTGVPSRFSGSGSETDFTLTISTLQPEDFATYYCQQSYGPPTYSFGQGTKLEIK", "notes": "IgG; V domains only"}, "B5": {"name": "C993 (antibody, V domains shown)", "VH": "EVQLLESGGGLVQPGGSLRLSCAASGFPFSIYAMSWVRQAPGKGLEWVSGMRGTTGTTYYADSVKGRFAISRDNSKNMLHLQMNSLRAEDTAVYYCAKSDHGDYVIGAFDIWGQGTMVTVSS", "VL": "QSALTQPPSASGSPGQSVTISCTGTSGDVGGYNYVSWYQQHPGKAPKLMIYEVSKRPSGVPDRFSGSKSGNTASLTVSGLQAEDEADYYCNSYAGSNNWVFGGGTKLTVL", "notes": "IgG; V domains only"}, "B6": {"name": "C983 (antibody, V domains shown)", "VH": "QVQLVESGGGVVRPGRSLRLSCAASGFTFSKYGMHWVRQAPGKGLECVASIAYDGSDDSYADSVKGRFIISRDNSKNTLYLQMNSLRAADTAVYYCAKVLGSYCSASSCHGQRPDYWGQGTLVTVSS", "VL": "DIQMTQSPSSLSAYVGDRVTITCQASQDISNHLNWYQQKPGKAPNLLIYDASNLETGVPSRFSGSGSGTDFSFTISSLQPEDIATYYCQQYDNVPPWTFGQGTKVEIK", "notes": "IgG; V domains only"}, "B7": {"name": "C1002 (antibody, V domains shown)", "VH": "EVQLVESGGGLVQPGGSLRLSCAASEFIVSSNYMTWVRQAPGKGLEWVSIMYPGGSTFYADSVKGRFTISRDNSKNTLYLQINRLRAEDTAVYYCARDIAGRLDYWGQGTLVTVSS", "VL": "DIQMTQSPSSLSASVGDRVTITCQASQDINNYLNWYQQKPGKAPKLLIYDASNLETGVPSRFSGSGSGTDFSFTISSLQPEDIATYYCQQYDNLSRLTFGGGTKVEIK", "notes": "IgG; V domains only"}, "B8": {"name": "C978 (antibody, V domains shown)", "VH": "QVQLVQSGAEVKKPGSSVKVSCKASGATFSNYIISWVRQAPGQGLEWMGRTIPLLDIANYAQKFQGRVTITADKSTRIVYMHLGSLTSEDTAVYYCATGKGYSSSSAAYYFDHWGQGTLVTVSS", "VL": "QSVLTQPPSVSGAPGQRVTISCTGTNSNIGAGYDIHWYQQLPGTAPKLLIYGSNNRPSGVPDRFSGSKSGTSASLAITGLQAEDEADYYCQSYDSSLSGSEVFGGGTKLTVL", "notes": "IgG; V domains only"}, "B9": {"name": "C981 (antibody, V domains shown)", "VH": "EVQLVESGGGLVQPGGSLRLSCAASGFTFSNYDMHWVRQVTGNGLEWVAAIGTSGDTYYPDSVKGRFTISRENVKNSLFLQMNSLRAGDTAVYYCARGGSSSWLWYFDLWGRGTLV", "VL": "DIQMTQSPSSLSASVGDRVTITCRASQSISSHLNWYQQKPGKVPKLLIYAASTLQSGVPSRFSGSGSGTDFTLTISSLQPEDFATYYCQQSYSMPPVTFGQGTRLEIK", "notes": "IgG; V domains only"}, "B10": {"name": "C998 (antibody, V domains shown)", "VH": "QVQLVQSGAEVKKPGASVKVSCKTSGYTFISYYIHWVRQAPGQGLEWMGIINPDGDNTNYAQKFQGRVTMTRDTSTSTVYMELSSLRFEDTAVYYCARGGAIPALRTAFDIWGQGTMVTVSS", "VL": "DIQMTQSPSTLSASVGDRVTITCRASQSISNWLAWYQQKPGKAPKLLIYKASSLESGVPSRFSGSGSGTEFTLTISSLQPDDFATYYCQEYNSYYFGQGTKLEIK", "notes": "IgG; V domains only"}, "B11": {"name": "C999 (antibody, V domains shown)", "VH": "QVQLVQSGAEVRRPGASVKVSCKASGYTLTHYYIHWVRQAPGQGLEWVGIINPDGDNTNYAQKFQGRVTMTRDTSTSTVYMELSSLRSEDTAIFYCARGGAIPALRSAFDIWGQGTMVTVSS", "VL": "DIQMTQSPSTLSASVGDRVTITCRASQSINNWLAWYQQKPGKAPKLLIYKASTLESGVPSRFSGSGSGTEFTLTISSLQPDDFATYYCQQYNSYFFGQGTKLEIK", "notes": "IgG; V domains only"}, "B12": {"name": "C979 (antibody, V domains shown)", "VH": "QVQLVESGGGVVQPGRSLRLSCVASGFTFSNYGMHWVRQAPGKGLEWVAVILYDGSDKYYLDSVKGRFTISRDNSKNTLFLQLNSLRAEDTAVYYCAKEGNGYGYQYAGMDVWGQGTTVTVS", "VL": "QSALTQPASVSGSPGQSITISCTGTNSDVGGYDYVSWYQQHPGKAPKLIIFEVINRPSGVSNRFSGSKSGNTASLTISGLRAEDEADYYCCSYTTSTTRVFGGGTKLTVL", "notes": "IgG; V domains only"}, "B13": {"name": "C977 (antibody, V domains shown)", "VH": "EVQLVESGGGLVQPGGSLRLSCAASGFTFSNYDMHWVRQVTGKGLEWVSLIGTAADAYYADSVKGRFTISRENAKNSLYLQINSLRAGDTAVYFCARGDSSGLYTFFDYWGQGTLVTVSS", "VL": "DIQMTQSPSSLSASVGDRVTITCRASQSVTRYLNWYQLKPGKAPKLLIYAASSLQSGVPSRFSGSGSGTDFTLTISSLQPEDFATYYCQQSYSTLGLTFGGGTKVEI", "notes": "IgG; V domains only"}, "B14": {"name": "C1000 (antibody, V domains shown)", "VH": "QVQLQESGPGLVKPSQTLSLSCTVSGGSISSDDYYWSWIRQPPGKGLEWIGYIYYSGSTYYNSSLKSRVSISVDTSKNQFSLKLSSVTAADTAVYYCARWKRWLQFLYFDYWGQGTLVTVSS", "VL": "QSALTQPRSVSGSPGQSVTISCTGTSSDVGGYSFVSWYQQHPGKAPKVLIYDVDKRPSGVPDRLSGSKSGNTASLTISGLQAEDEADYYCCSYAGSYTLIFGGGTKLTVL", "notes": "IgG; V domains only"}, "B15": {"name": "C1003 (antibody, V domains shown)", "VH": "QVQLVESGGGVVQPGRSLRLSCAASGFAFSSYGMNWVRQAPGKGLEWVTTVSSDGNVNYYIDSVKGRFTISRDNSKNTLYLQMNSLRGDDTAVYYCAKGPRFGWSYRGGSGFDIWGQGTMVTVSS", "VL": "DIQMTQSPSSLSASVGDRVTITCQASQDISNYLNWYQQKPGKAPKLLIYDASNLETGVPSRFSGSGSGTDFTFTITSLQPEDIATYYCQQYDNLPITFGQGTRLEIK", "notes": "IgG; V domains only"}, "B16": {"name": "C984 (antibody, V domains shown)", "VH": "QVQLVQSGTEVKKPGDSVQVSCKTSGYSFTGYYIHWVRQAPGQGLEWMGRINPNSGGTNYAQKFQGRVIMTRDTSITTAFMELTRLRYDDTAVYFCAREPIEGVIGGMIVNYYYMDVWGRGTTVTVSS", "VL": "QSALTQPASVSGSPGQSITISCTGTSSDVGGYYYVSWYQQHPGKAPKLMIYDVSSRPSGVSNRFSGSKSGNTASLTISGLQAEDEADYYCSSYTSSNTLVVFGGGTKLTVL", "notes": "IgG; V domains only"}, "B17": {"name": "C985 (antibody, V domains shown)", "VH": "QVQLVQSGAEVKKPGASVKVSCKASGYIFTGYYMHWVRQAPGQGLEWMGRINPNSGGSRYAEKFQGRVTMTRDTSIITAFMELRGLKSDDTAVYYCAREPIEAVPAGIIVNYYYMDVWGNGTTVTVSS", "VL": "QSALTQPASVSGSPGQSITISCTGTSSDVGGYNYVSWYQQHPGKAPKLMIYDVTSRPSGVSDRFSGSKSGTTASLTISGLQAEDEADYYCSSFTSAFTLVVFGGGTKLTVL", "notes": "IgG; V domains only"}, "B18": {"name": "C982 (antibody, V domains shown)", "VH": "EVQLVESGGGLVQPGGSLRLSCAASGFTFSNYDMHWVRQPTGGGLEWVSAIGTAGDTYYLASVKGRFTISRENAKNSLSLQMNSLRAGDTAVYYCVRGDTLVQGVIKAYYYYFMDVWGQGITVTVSS", "VL": "DIQMTQSPSSLSASVGDRVTITCRASQNISRYLNWYQQKPGKAPRLLIYAASTLQSGVPSRFSASGSGTDFTLTITNLQPEDFAVYYCQQTYVMPPYTLAQGTKLEIK", "notes": "IgG; V domains only"}, "B19": {"name": "C1008 (antibody, V domains shown)", "VH": "EVQLVESGGGLIQPGGSLRLSCAASGFTVSSNYMSWVRQAPGKGLEWVSVIYSGGSTYYADSVKGRFTISRDNSKNTLYLQMNSLRAEDTAVYYCARVVGYDFWSGYDGGYFDYWGQGTLVTVSS", "VL": "QSALTQPASVSGSPGQSITISCTGTSSDVGSYNLVSWYQQHPGKAPKLMIYEVSKRPSGVSNRFSGSKSGNTASLTISGLQAEDEADYYCCSYAGSSTWVFGGGTKLTVL", "notes": "IgG; V domains only"}, "B20": {"name": "C995 (antibody, V domains shown)", "VH": "EVQLVESGGGLIQPGRSLRLSCTASGFSVGDYAMSWFRQAPGKGLEWVGFLRNQHYGGTAEYAASVKGRFSISTDASKNIVYLQMDSLKTEDTAVYYCARNDRYIVIVPAEMLYWGQGTLVTVSS", "VL": "EIVMTQSPATLSVSPGERATLSCRATESVYSNLAWYQQKPGQAPRLLMYDASTRAPGIPARFSGSGSGTEFTLTISSLQSEDFATYYCQQYSNWPPITFGQGTRLEIK", "notes": "IgG; V domains only"}, "B21": {"name": "C1001 (antibody, V domains shown)", "VH": "QVQLQESGPGLVKPSQTLSLTCTVSGGSISSGDYYWTWIRQPPGKGLEWIGYIFYSGITYYSPSLKSRLTMSIDTSKSQFSLNLSSVTAADTAVYYCARWKRLLQSLHFDYWGQGILVTVSS", "VL": "QSALTQPRSVSGSPGQSVTISCTGTSSDVGSYDYVSWYQQHPGKAPKVMIYGVDERPSGVPHRFSGSKSGNTASLTISGLQADDEADYFCCFYAGSYTLLFGGGTKVTVL", "notes": "IgG; V domains only"}, "B22": {"name": "C996 (antibody, V domains shown)", "VH": "EVQLVESGGGLVQPGGSLRLSCVASGFTSTNYDMHWVRQAPGRGLQWVSSIGTAGDTYYPGSVRGRFTISRENAKNSLDLQMNSLRVGDTAVYYCARGQRGYYDRSGYYWGWRAFDIWGQGTMVTVSS", "VL": "SYELTQPPSVSVAPGQTARITCGGNNIGNKSVYWYQQKPGQAPVLVVYDDSGRPSGIPERFSGSNSANTATLTISRVEAGDEADYYCQVWDNNSDQFGGGTKLTVL", "notes": "IgG; V domains only"}}, "data": [{"target": "T1, SARS-COV-2 RBD (SARS-COV-2, UniProt P0DTC2 319-539)", "T1 construct": "also called WT RBD", "test": "ELISA, RBD coated", "units": {"EC50": "ng/mL"}, "values": [{"binder": "B1", "EC50": 2.04}, {"binder": "B2", "EC50": 3.22}, {"binder": "B3", "EC50": 3.49}, {"binder": "B4", "EC50": 2.09}, {"binder": "B5", "EC50": 2.29}, {"binder": "B6", "EC50": 2.11}, {"binder": "B7", "EC50": 0.83}, {"binder": "B8", "EC50": 2.09}, {"binder": "B9", "EC50": 2.12}, {"binder": "B10", "EC50": 2.51}, {"binder": "B11", "EC50": 2.68}, {"binder": "B12", "EC50": 2.54}, {"binder": "B13", "EC50": 2.13}, {"binder": "B14", "EC50": 3.2}, {"binder": "B15", "EC50": 1.82}, {"binder": "B16", "EC50": 2.76}, {"binder": "B17", "EC50": 3.67}, {"binder": "B18", "EC50": 2.56}, {"binder": "B19", "EC50": 17.2}, {"binder": "B20", "EC50": 3.79}, {"binder": "B21", "EC50": 3.23}, {"binder": "B22", "EC50": 3.07}]}]}
